According to PMC5575267, “A novel function of cIAP1 as a mediator of CHIP-driven eIF4E regulation” (Scientific Reports, 2017):

Legend:
GST-cIAP1 [1] = biological target: T1, GST-cIAP1 (human, UniProt Q13490 1-618); experiment: pull-down; His-tag pull-down: eIF4E-6His beads pre-incubated with GST-cIAP1 (also in increasing amounts), then incubated with GST-CHIP or GST alone; WB with anti-GST antibody; details: both partners purified
T1 construct: also called GST-cIAP1 beads; source: bacteria, purified (cloned into pGEX4T-1)

GST-cIAP1 [2] = biological target: T1, GST-cIAP1; experiment: pull-down; GST pull-down: GST or GST fusion protein on glutathione beads incubated with 6His-tagged protein in 100 mM Tris pH 8.0, 100 mM NaCl, 2 mM EDTA, 5% glycerol, 2 h at 4 °C; WB with anti-His antibody; details: both partners purified

T1 sequence (Q13490 whole entry): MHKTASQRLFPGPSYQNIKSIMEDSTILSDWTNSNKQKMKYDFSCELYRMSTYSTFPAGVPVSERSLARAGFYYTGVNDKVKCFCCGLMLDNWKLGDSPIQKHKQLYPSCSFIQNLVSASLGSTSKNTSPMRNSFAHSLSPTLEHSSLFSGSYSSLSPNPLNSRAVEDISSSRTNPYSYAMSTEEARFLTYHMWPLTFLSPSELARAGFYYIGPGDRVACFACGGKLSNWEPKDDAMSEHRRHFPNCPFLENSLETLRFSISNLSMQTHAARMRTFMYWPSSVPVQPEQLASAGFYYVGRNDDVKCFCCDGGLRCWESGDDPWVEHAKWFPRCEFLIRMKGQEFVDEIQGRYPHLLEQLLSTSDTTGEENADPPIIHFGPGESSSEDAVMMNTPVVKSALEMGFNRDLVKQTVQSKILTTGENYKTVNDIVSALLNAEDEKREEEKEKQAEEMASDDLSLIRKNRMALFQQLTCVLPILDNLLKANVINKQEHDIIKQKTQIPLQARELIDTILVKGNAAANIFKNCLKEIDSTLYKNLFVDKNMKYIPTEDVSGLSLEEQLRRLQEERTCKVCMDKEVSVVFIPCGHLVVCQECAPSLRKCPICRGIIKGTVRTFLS

binding result (GST-cIAP1 [1]) | binding result (GST-cIAP1 [2]) | Binder
binds | – | GST-CHIP WT (natural protein, UniProt Q9UNE7 1-303, looked up, source: bacteria, purified (cloned into pGEX4T-1)) MKGKEEKEGGARLGAGGGSPEKSPSAQELKEQGNRLFVGRKYPEAAACYGRAITRNPLVAVYYTNRALCYLKMQQHEQALADCRRALELDGQSVKAHFFLGQCQLEMESYDEAIANLQRAYSLAKEQRLNFGDDIPSALRIAKKKRWNSIEERRIHQESELHSYLSRLIAAERERELEECQRNHEGDEDDSHVRAQQACIEAKHDKYMADMDELFSQVDEKRKKRDIPDYLCGKISFELMREPCITPSGITYDRKDIEEHLQRVGHFDPVTRSPLTQEQLIPNLAMKEVIDAFISENGWVEDY
– | binds | CHIP WT-6His (natural protein, UniProt Q9UNE7 1-303, looked up, also called CHIP-6His (WT); source: bacteria, purified (cloned into pET 23a)) MKGKEEKEGGARLGAGGGSPEKSPSAQELKEQGNRLFVGRKYPEAAACYGRAITRNPLVAVYYTNRALCYLKMQQHEQALADCRRALELDGQSVKAHFFLGQCQLEMESYDEAIANLQRAYSLAKEQRLNFGDDIPSALRIAKKKRWNSIEERRIHQESELHSYLSRLIAAERERELEECQRNHEGDEDDSHVRAQQACIEAKHDKYMADMDELFSQVDEKRKKRDIPDYLCGKISFELMREPCITPSGITYDRKDIEEHLQRVGHFDPVTRSPLTQEQLIPNLAMKEVIDAFISENGWVEDY
– | binds | CHIP K30A-6His (natural protein, UniProt Q9UNE7 1-303, looked up, also called CHIP-6His (K30A); source: bacteria, purified (cloned into pET 23a)) MKGKEEKEGGARLGAGGGSPEKSPSAQELAEQGNRLFVGRKYPEAAACYGRAITRNPLVAVYYTNRALCYLKMQQHEQALADCRRALELDGQSVKAHFFLGQCQLEMESYDEAIANLQRAYSLAKEQRLNFGDDIPSALRIAKKKRWNSIEERRIHQESELHSYLSRLIAAERERELEECQRNHEGDEDDSHVRAQQACIEAKHDKYMADMDELFSQVDEKRKKRDIPDYLCGKISFELMREPCITPSGITYDRKDIEEHLQRVGHFDPVTRSPLTQEQLIPNLAMKEVIDAFISENGWVEDY
